Measurements from US6159704, “Phosphatase modulator” (Novartis AG, dated 2000).

B1: PP2Ac^100-309 fused to the GAL4 DNA binding domain (enzyme)
chain: LVALKVRYRERITILRGNHESRQITQVYGFYDECLRKYGNANVWKYFTDLFDYLPLTALVDGQIFCLHGGLSPSIDTLDHIRALDRLQEVPHEGPMCDLLWSDPDDRGGWGISPRGAGYTFGQDISETFNHANGLTLVSRAHQLVMEGYNWCHDRNVVTIFSAPNYCYRCGNQAAIMELDDTLKYSFLQFDPAPRRGEPHVTRRTPDYFL
B2: PP2Ac^150-309 fused to the GAL4 DNA binding domain (enzyme)
chain: FDYLPLTALVDGQIFCLHGGLSPSIDTLDHIRALDRLQEVPHEGPMCDLLWSDPDDRGGWGISPRGAGYTFGQDISETFNHANGLTLVSRAHQLVMEGYNWCHDRNVVTIFSAPNYCYRCGNQAAIMELDDTLKYSFLQFDPAPRRGEPHVTRRTPDYFL
B3: full length human PR55α fused to the GAL4 DNA binding domain (other)
chain: MAGAGGGNDIQWCFSQVKGAVDDDVAEADIISTVEFNHSGELLATGDKGGRVVIFQQEQENKIQSHSRGEYNVYSTFQSHEPEFDYLKSLEIEEKINKIRWLPQKNAAQFLLSTNDKTIKLWKISERDKRPEGYNLKEEDGRYRDPTTVTTLRVPVFRPMDLMVEASPRRIFANAHTYHINSISINSDYETYLSADDLRINLWHLEITDRSFNIVDIKPANMEELTEVITAAEFHPNSCNTFVYSSSKGTIRLCDMRASALCDRHSKLFEEPEDPSNRSFFSEIISSISDVKFSHSGRYMMTRDYLSVKIWDLNMENRPVETYQVHEYLRSKLCSLYENDCIFDKFECCWNGSDSVVMTGSYNNFFRMFDRNTKRDITLEASRENNKPRTVLKPRKVCASGKRKKDEISVDSLDFNKKILHTAWHPKENIIAVATTNNLYIFQDKVN
B4: GAL4 transactivation domain alone (empty vector pGAD424) (other)
chain: ANFNQSGNIADSSLSFTFTNSSNGPNLITTQTNSQALSQPIASSNVHDNFMNNEITASKIDDGNNSKPLSPGWTDQTAYNAFGITTGMFNTTTMDDVYNYLFDDEDTPPNPKKE

What was measured:
[1] = target: full length human eRF1 fused to the GAL4 transactivation domain (yeast; human, UniProt P62495); assay: yeast two-hybrid: His growth (HF7c) and colony colour in filter β-Gal assay (SFY526)
From the text: PCR products encoding three N-terminal (PP2Ac^50-309, PP2Ac^100-309 and PP2Ac^150-309) and three C-terminal (PP2Ac^1-259, PP2Ac^1-209 and PP2Ac^1-159) truncations of PP2Acα are subcloned into pGBT9 in-frame with the GAL4 DNA binding domain. Control plasmids encoding wild-type GAL4 protein (pCL1), SV40 large T antigen (pTD1), p53 (pVA3) and lamin C (pLAM5'), the latter three fused to the appropriate domains of GAL4, are provided by the manufacturer and used for control interactions. Expression constructs are transformed into *S. cerevisiae* host strains SFY526 (lacZ reporter gene) and HF7c (lacZ and HIS3 reporter genes). […] The expression of the lacZreporter gene is determined by measuring β-galactosidase activity using 5-bromo-4-chloro-3-indolyl-β-D-galactoside [X-Gal] and O-nitrophenyl-β-D-galactoside [ONPG] as substrates, whereas the expression of HIS3 reporter gene is assessed by monitoring growth on triple selective SD medium lacking leucine, tryptophan and histidine. All media and reagents are prepared according to the manufacturer's recommendations. Transcriptional activation of reporter genes driven by wild-type GAL4 protein or brought about by the interaction between SV40 largeT and p53 are used as positive controls. To exclude intrinsic transcriptional activation capacity or non-specific binding of either molecules to unrelated proteins, cotransformations with the empty vector or vector encoding human lamin C fused to the opposite domain of GAL4 are used as negative controls.

[2] = target: PP2Ac^50-309 fused to the GAL4 DNA binding domain (yeast; human, UniProt P04386); assay: yeast two-hybrid, empty vector control: His growth (HF7c) and filter β-Gal colour (SFY526)
[3] = target: full length human PP2Acα fused to the GAL4 DNA binding domain (yeast; human); assay: as above
[4] = target: full length human PR65α fused to the GAL4 DNA binding domain (yeast; human); assay: as above
[5] = target: B3; assay: as above
[6] = target: B2; assay: as above
[7] = target: PP2Ac^1-259 fused to the GAL4 DNA binding domain (yeast; human, UniProt P04386); assay: as above
[8] = target: B1; assay: as above
[9] = target: PP2Ac^1-159 fused to the GAL4 DNA binding domain (yeast; human, UniProt P04386); assay: as above
[10] = target: PP2Ac^1-209 fused to the GAL4 DNA binding domain (yeast; human, UniProt P04386); assay: as above

Binder: B1
- binding result [1]: no binding

Binder: B2
- binding result [1]: no binding

Binder: B3
- binding result [1]: no binding

Binder: B4
- binding result [2]: no binding
- binding result [3]: no binding
- binding result [4]: no binding
- binding result [5]: no binding
- binding result [6]: no binding
- binding result [7]: no binding
- binding result [8]: no binding
- binding result [9]: no binding
- binding result [10]: no binding
